Assay results: patent publication US20050013808A1, “Nitroreductase enzymes” (priority 2001, published 2005)
Numbering of substitutions follows the chain as printed. Names and notes keep the numbering of the source. Values joined by “and” are separate entries in the source; they are usually repeats but may differ in a detail not shown here. Identical values can stand only once.

B1: N71D (protein)
chain: MDIISVALKRHSTKAFDASKKLTPEQAEQIKTLLQYSPSSTNSQPWHFIVASTEEGKARVAKSAAGNYVFDERKMLDASHVVVFCAKTAMDDVWLKLVVDQEDADGRFATPEAKAANDKGRKFFADMHRKDLHDDAEWMAKQVYLNVGNFLLGVAALGLDAVPIEGFDAAILDAEFGLKEKGYTSLVVVPVGHHSVEDFNATLPKSRLPQNITLTEV
B2: S40G (protein)
chain: B1 chain with S40G, D71N
B3: Y68G F124W (protein)
chain: B1 chain with Y68G, D71N, F124W
B4: S40A (protein)
chain: B1 chain with S40A, D71N
B5: T41G (protein)
chain: B1 chain with T41G, D71N
B6: N71S (protein)
chain: B1 chain with D71S
B7: S40T (protein)
chain: B1 chain with S40T, D71N
B8: Y68G F124Q (protein)
chain: B1 chain with Y68G, D71N, F124Q
B9: G120A (protein)
chain: B1 chain with D71N, G120A
B10: G120S (protein)
chain: B1 chain with D71N, G120S

How the values were obtained:
[1] = tested on: UT5600 cells (NTR−) lysogens; assay: Replica-plate screening of mutant NTR-expressing lysogens on increasing CB1954 (growth score); type: cell-based, E. coli; design: key to Score: 0: Good growth on all concentrations of CB 1954 = vector; Good growth on 100 and 200, faint on 300, ring of growth on 400 μM; Good growth on 100 and 200, ring growth on 300, none or very faint on 400 μM; Good growth on 100, faint to good on 200, none or very faint on 300 and 400 μM; 4: Good growth on 100 μM, none to ring growth on 200 μM = wild type; Good growth on 50 μM, ring on 100 μM, none on 200, 300 or 400 μM; 6: Faint growth on 50 μM, ring on 100 μM; 7: Good growth on 50 μM, none on 100 μM; 8: Ring growth on 50 μM, none on 100 μM; 9: None or very faint growth on 50 μM, none on 100 μM; 10: None or ring growth on 35 μM; conditions: growth of lysogens on agar with kanamycin, IPTG and 0-400 μM CB1954; wild type = 4, higher = more sensitive
Method: The ligation mix was packaged (Stratagene) into lambda bacteriophage particles that were used to infect UT5600 cells (NTR ^−). As a control wild type NTR was also cloned into this vector (JG16C2). Kanamycin resistant lysogens were selected on agar plates ([…] kanamycin) then individually grown overnight in a well of a 96-well plate in LB+Kanamycin. The clones were replica plated on to a series of plates containing Tris-buffered (50 mM, pH 7.5) LB agar with kanamycin, IPTG (0.1 mM) and CB1954 at a concentration of 0, 25, 35, 50, 100, 200, 300 or 400 μM (see FIG. 3). […]

[2] = tested on: UT5600 cells (NTR−) lysogens; assay: Survival curve (colony count) IC50 of CB1954 in NTR-expressing lysogens; type: cell-based, E. coli; conditions: concentration of CB1954 giving 50% reduction in colony number after 36h growth; lysogen expressing the named NTR
Method: To quantify the improvement in NTR activity in the clones in a less subjective way, a few clones were selected for further study by determining their survival curves. The lysogens were grown overnight in LB +kanamycin and diluted to approximately 1 cell per μl based on the OD. In duplicate, 100 μl diluted cells were plated into Tris-buffered LB plates containing kanamycin, IPTG and 0-400 μM CB1954. After 36h growth the number of colonies on each plate were counted and expressed as a percentage of the number present on the plates with no CB1954. Survival curves showing % survival versus concentration of CB 1954 were plotted (see examples in FIG. 7) and the IC50 determined as the concentration of CB 1954 which kills gives a 50% reduction in colony number (Table 3 and FIG. 8). A few clones containing mutations resulting in an enhanced sensitivity to CB 1954 were selected for further study.

Molecule	Score [1]	IC50 [2]
B1	5	110 µM
B2	5	90 µM
B3	5-7	69 µM
B4	5-7	100 µM and 84 µM
B5	5-7	120 µM
B6	7	55 µM
B7	5	102 µM
B8	4	143 µM
B9	4-5	160 µM
B10	4-6	125 µM
